The values below come from publication PMC4575180 (2015).

This assay concerns the target T1, syntaxin3 (Rattus norvegicus (Rat), UniProt Q08849).
T1 chain: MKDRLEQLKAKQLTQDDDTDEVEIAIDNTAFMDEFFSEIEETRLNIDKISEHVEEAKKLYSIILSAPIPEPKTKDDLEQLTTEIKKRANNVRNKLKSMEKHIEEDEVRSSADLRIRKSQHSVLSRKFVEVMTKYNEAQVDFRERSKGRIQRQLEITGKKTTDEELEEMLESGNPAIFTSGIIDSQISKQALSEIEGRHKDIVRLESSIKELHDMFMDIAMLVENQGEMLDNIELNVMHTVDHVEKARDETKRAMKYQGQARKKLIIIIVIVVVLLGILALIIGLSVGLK
As to the kind of experiment: pull-down.

B1: Munc18c (protein)
chain: MAPPVSERGLKSVVWRKIKTAVFDDCRKEGEWKIMLLDEFTTKLLSSCCKMTDLLEEGITVIENIYKNREPVRQMKALYFISPTPKSVDCFLRDFGSKSEKKYKAAYIYFTDFCPDSLFNKIKASCSKSIRRCKEINISFIPQESQVYTLDVPDAFYYCYSPDPSNASRKEVVMEAMAEQIVTVCATLDENPGVRYKSKPLDNASKLAQLVEKKLEDYYKIDEKGLIKGKTQSQLLIIDRGFDPVSTVLHELTFQAMAYDLLPIENDTYKYKTDGKEKEAVLEEDDDLWVRVRHRHIAVVLEEIPKLMKEISSTKKATEGKTSLSALTQLMKKMPHFRKQISKQVVHLNLAEDCMNKFKLNIEKLCKTEQDLALGTDAEGQRVKDSMLVLLPVLLNKNHDNCDKIRAVLLYIFGINGTTEENLDRLIHNVKIEDDSDMIRNWSHLGVPIVPPSQQAKPLRKDRSAEETFQLSRWTPFIKDIMEDAIDNRLDSKEWPYCSRCPAVWNGSGAVSARQKPRTNYLELDRKNGSRLIIFVIGGITYSEMRCAYEVSQAHKSCEVIIGSTHILTPRKLLDDIKMLNKSKDKVSFKDE
Turning to B1, the binding result is listed as “no binding”.
